In data set [1] the test system is VchCAST RNA-guided transposition machinery (E. coli BL21(DE3) host, lacZ target). The data set is described as follows: relative integration efficiency (T-RL orientation) vs wild-type transposon end (log2 (normalized fold change)); transposon end mutated: right end (5 bp flank + 75 bp right end); higher = more efficient transposition. The method in brief:
(§1)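 In E. coli BL21(DE3), a T7-driven effector plasmid was paired with a pUC57 mini-transposon donor containing 1549 left-end or 1849 right-end barcoded transposon variants. Cells grew on plates with 0.1 mM IPTG at 37°C for 18 h. Relative integration efficiency was derived from Illumina reads of genomic integration junctions against input plasmids, as a log-transformed output/input barcode fold change normalised to reference barcodes.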

The test system is the same in data set [2]. The data set is described as follows: relative integration efficiency (T-LR orientation) vs wild-type transposon end (log2 (normalized fold change)); transposon end mutated: right end (5 bp flank + 75 bp right end); higher = more efficient transposition. The method in brief: as §1

± gives the standard deviation of the averaged measurements.

For “ACATTTGTTGATACAACCATAAAATCATAATTACACCCATCAATTGATAATTATCACACCCCATTTAACTATAACGCTCTGATCATAGTCAGACCAACATTGCTACGACCCGTATTCGCACCGACAC”, the “relative integration efficiency (log2)” value in data set [1] is -4.31 ± 0.11; in data set [2] it was -0.773 ± 0.047.
For “ACATTTGTTGATACAACCATAAAATCATAATTACACCCATCAATTGATAATTATCCCACCCAATTTAACTATAACGCTCTGATCATAGTCAGACCAACATTGCTACGACCCGTATTCGCACCGACAC” the same measures were -3.92 ± 0.52 and -0.195 ± 0.066.
For “ACATTTGTTGATACAACCATAAAATCATAATTACACCCATCAATTGATAATTATCCCACCCCATTTAACTATAACGCTCTGATCATAGTCAGACCAACATTGCTACGACCCGTATTCGCACCGACAC” the same measures were -4.292 ± 0.026 and -0.633 ± 0.39.
Take “ACATTTGTTGATACAACCATAAAATCATAATTACCCCCATAAATTGATAATTATCACACCCAATTTAACTATAACGCTCTGATCATAGTCAGACCAACATTGCTACGACCCGTATTCGCACCGACAC”: the “relative integration efficiency (log2)” value in data set [1] was -3.09 ± 0.33; in data set [2], 0.699 ± 0.11.
Consider “ACATTTGTTGATACAACCATAAAATCATAATTACCCCCATAAATTGATAATTATCACACCCCATTTAACTATAACGCTCTGATCATAGTCAGACCAACATTGCTACGACCCGTATTCGCACCGACAC”, for which the “relative integration efficiency (log2)” value in data set [1] was -3.3 ± 0.19; in data set [2], 0.532 ± 0.1.
With “ACATTTGTTGATACAACCATAAAATCATAATTACCCCCATAAATTGATAATTATCCCACCCAATTTAACTATAACGCTCTGATCATAGTCAGACCAACATTGCTACGACCCGTATTCGCACCGACAC”, the results for the “relative integration efficiency (log2)” value in data set [1] and in data set [2] were -0.611 ± 0.71 and 3.39 ± 0.37, respectively.
For “ACATTTGTTGATACAACCATAAAATCATAATTACCCCCATAAATTGATAATTATCCCACCCCATTTAACTATAACGCTCTGATCATAGTCAGACCAACATTGCTACGACCCGTATTCGCACCGACAC” the same measures were -3.28 ± 0.32 and 0.676 ± 0.046.
The matching figures for “ACATTTGTTGATACAACCATAAAATCATAATTACCCCCATCAATTGATAATTATCACACCCAATTTAACTATAACGCTCTGATCATAGTCAGACCAACATTGCTACGACCCGTATTCGCACCGACAC”: -5.12 ± 0.12 and -2.04 ± 0.46.
For “ACATTTGTTGATACAACCATAAAATCATAATTACCCCCATCAATTGATAATTATCACACCCCATTTAACTATAACGCTCTGATCATAGTCAGACCAACATTGCTACGACCCGTATTCGCACCGACAC” the same measures were -5.34 ± 0.18 and -1.5 ± 0.28.
Turning to “ACATTTGTTGATACAACCATAAAATCATAATTACCCCCATCAATTGATAATTATCCCACCCAATTTAACTATAACGCTCTGATCATAGTCAGACCAACATTGCTACGACCCGTATTCGCACCGACAC”, the “relative integration efficiency (log2)” value in data set [1] is -5.51 ± 0.13; in data set [2] it was -1.33 ± 0.49.
For “ACATTTGTTGATACAACCATAAAATCATAATTACCCCCATCAATTGATAATTATCCCACCCCATTTAACTATAACGCTCTGATCATAGTCAGACCAACATTGCTACGACCCGTATTCGCACCGACAC” the same measures were -5.42 ± 0.086 and -2.4 ± 0.19.
With “ACATTTGTTGATACAACCATAAAATCATAATTCACCCATAAATTGATAATTATCACACCCACATTTAACTATAACGCTCTGATCATAGTCAGACCAACATTGCTACGACCCGTATTCGCACCGACAC”, the “relative integration efficiency (log2)” value was -4.53 ± 0.24 in data set [1] and -0.0705 ± 0.067 in data set [2].
The matching figures for “ACATTTGTTGATACAACCATAAAATCATAATTCACCCCTAAATTGATAATTATCACACCCACATTTAACTATAACGCTCTGATCATAGTCAGACCAACATTGCTACGACCCGTATTCGCACCGACAC”: -6.26 ± 0.19 and -1.89 ± 0.27.
For “ACATTTGTTGATACAACCATAAAATCATCATTACACCCATAAATTGATAATTATCACACCCAATTTAACTATAACGCTCTGATCATAGTCAGACCAACATTGCTACGACCCGTATTCGCACCGACAC” the same measures were -3.16 ± 0.25 and 0.617 ± 0.13.
“ACATTTGTTGATACAACCATAAAATCATCATTACACCCATAAATTGATAATTATCACACCCCATTTAACTATAACGCTCTGATCATAGTCAGACCAACATTGCTACGACCCGTATTCGCACCGACAC”: the entries for the “relative integration efficiency (log2)” value in data set [1] and in data set [2] were -3.39 ± 0.35 and 0.57 ± 0.096, respectively.
As for “ACATTTGTTGATACAACCATAAAATCATCATTACACCCATAAATTGATAATTATCCCACCCAATTTAACTATAACGCTCTGATCATAGTCAGACCAACATTGCTACGACCCGTATTCGCACCGACAC”, the “relative integration efficiency (log2)” value in data set [1] was -3.07 ± 0.5; in data set [2], 0.728 ± 0.058.
Consider “ACATTTGTTGATACAACCATAAAATCATCATTACACCCATAAATTGATAATTATCCCACCCCATTTAACTATAACGCTCTGATCATAGTCAGACCAACATTGCTACGACCCGTATTCGCACCGACAC”, for which the figures for the “relative integration efficiency (log2)” value in data set [1] and in data set [2] were -2.81 ± 0.49 and 0.992 ± 0.31, respectively.
The matching figures for “ACATTTGTTGATACAACCATAAAATCATCATTACACCCATCAATTGATAATTATCACACCCAATTTAACTATAACGCTCTGATCATAGTCAGACCAACATTGCTACGACCCGTATTCGCACCGACAC”: -4.74 ± 0.38 and -0.508 ± 0.42.
For the sequence “ACATTTGTTGATACAACCATAAAATCATCATTACACCCATCAATTGATAATTATCACACCCCATTTAACTATAACGCTCTGATCATAGTCAGACCAACATTGCTACGACCCGTATTCGCACCGACAC”, the “relative integration efficiency (log2)” value in data set [1] was -4.88 ± 0.26; in data set [2] it was -1.24 ± 0.14.
The matching figures for “ACATTTGTTGATACAACCATAAAATCATCATTACACCCATCAATTGATAATTATCCCACCCAATTTAACTATAACGCTCTGATCATAGTCAGACCAACATTGCTACGACCCGTATTCGCACCGACAC”: -4.67 ± 0.2 and -1.17 ± 0.061.
“ACATTTGTTGATACAACCATAAAATCATCATTACACCCATCAATTGATAATTATCCCACCCCATTTAACTATAACGCTCTGATCATAGTCAGACCAACATTGCTACGACCCGTATTCGCACCGACAC”: the “relative integration efficiency (log2)” value is -4.36 ± 0.26 in data set [1] and -1.08 ± 0.22 in data set [2].
Take “ACATTTGTTGATACAACCATAAAATCATCATTACCCCCATAAATTGATAATTATCACACCCAATTTAACTATAACGCTCTGATCATAGTCAGACCAACATTGCTACGACCCGTATTCGCACCGACAC”: the figures for the “relative integration efficiency (log2)” value in data set [1] and in data set [2] were -4.04 ± 0.25 and -0.419 ± 0.52, respectively.
Turning to “ACATTTGTTGATACAACCATAAAATCATCATTACCCCCATAAATTGATAATTATCACACCCCATTTAACTATAACGCTCTGATCATAGTCAGACCAACATTGCTACGACCCGTATTCGCACCGACAC”, the results for the “relative integration efficiency (log2)” value in data set [1] and in data set [2] were -3.71 ± 0.07 and -0.211 ± 0.014, respectively.
As to “ACATTTGTTGATACAACCATAAAATCATCATTACCCCCATAAATTGATAATTATCCCACCCAATTTAACTATAACGCTCTGATCATAGTCAGACCAACATTGCTACGACCCGTATTCGCACCGACAC”, the “relative integration efficiency (log2)” value in data set [1] was -3.815 ± 0.027; in data set [2], 0.215 ± 0.23.
The matching figures for “ACATTTGTTGATACAACCATAAAATCATCATTACCCCCATAAATTGATAATTATCCCACCCCATTTAACTATAACGCTCTGATCATAGTCAGACCAACATTGCTACGACCCGTATTCGCACCGACAC”: -3.69 ± 0.077 and -0.0125 ± 0.058.
On to “ACATTTGTTGATACAACCATAAAATCATCATTACCCCCATCAATTGATAATTATCACACCCAATTTAACTATAACGCTCTGATCATAGTCAGACCAACATTGCTACGACCCGTATTCGCACCGACAC”, for which the figures for the “relative integration efficiency (log2)” value in data set [1] and in data set [2] were -5.41 ± 0.15 and -1.24 ± 0.5, respectively.
The matching figures for “ACATTTGTTGATACAACCATAAAATCATCATTACCCCCATCAATTGATAATTATCACACCCCATTTAACTATAACGCTCTGATCATAGTCAGACCAACATTGCTACGACCCGTATTCGCACCGACAC”: -5.76 ± 0.07 and -1.95 ± 0.53.
For “ACATTTGTTGATACAACCATAAAATCATCATTACCCCCATCAATTGATAATTATCCCACCCAATTTAACTATAACGCTCTGATCATAGTCAGACCAACATTGCTACGACCCGTATTCGCACCGACAC” the same measures were -5.47 ± 0.095 and -1.26 ± 0.14.
For “ACATTTGTTGATACAACCATAAAATCATCATTACCCCCATCAATTGATAATTATCCCACCCCATTTAACTATAACGCTCTGATCATAGTCAGACCAACATTGCTACGACCCGTATTCGCACCGACAC”, the results for the “relative integration efficiency (log2)” value in data set [1] and in data set [2] were -5.09 ± 0.14 and -1.6 ± 0.036, respectively.
For “ACATTTGTTGATACAACCATAAAATCATCATTCACCCATAAATTGATAATTATCACACCCACATTTAACTATAACGCTCTGATCATAGTCAGACCAACATTGCTACGACCCGTATTCGCACCGACAC” the same measures were -5.68 ± 0.095 and -1.73 ± 0.67.
As to “ACATTTGTTGATACAACCATAAAATCATCATTCACCCCTAAATTGATAATTATCACACCCACATTTAACTATAACGCTCTGATCATAGTCAGACCAACATTGCTACGACCCGTATTCGCACCGACAC”, the figures for the “relative integration efficiency (log2)” value in data set [1] and in data set [2] were -5.66 ± 0.14 and -1.37 ± 0.066, respectively.
With “ACATTTGTTGATACAACCATAAAATCATTATTACACCCATTAATTGATAATTATCACACCCAATTTAACTATAACGCTCTGATCATAGTCAGACCAACATTGCTACGACCCGTATTCGCACCGACAC”, the “relative integration efficiency (log2)” value in data set [1] is -3.73 ± 0.33; in data set [2], 0.129 ± 0.18.

The values above are taken from the supplement of paper PMC10201428.
